The source of these data is article PMC9482650, “Quantitative fragmentomics allow affinity mapping of interactomes” (Nature Communications, 2022).

Some targets named below: GRASP, Q7Z6J2; DLG5_1, Q8TDM6; Inadl_9, Q8NI35; NHERF4_1, Q86UT5-2; Inadl_2, Q8NI35; MAST1, Q9Y2H9; AHNAK1, Q09666; Inadl_6, Q8NI35; SNX27, Q96L92; PARD3_3, Q8TEW0; NHERF2_2, Q15599; TJP2_1, Q9UDY2; IL16_4, Q14005; DLG1_3, Q12959; NOS1, P29475; FRMPD3, Q5JV73; DLG4_3, P78352; MAGI1_2, Q96QZ7.
Common to all, as to assay: holdup assay
Design in all cases: key: below the threshold = too weak to quantify, mostly under pKd 3.1 to 4
Common to all, as to details: plain residues with an end cap or a label only (N-terminal biotin on a linker: ado-ado)

The target of the next test is T1, MPDZ_10, O75970.
T1 sequence (O75970 1624-1722, limits assumed, looked up): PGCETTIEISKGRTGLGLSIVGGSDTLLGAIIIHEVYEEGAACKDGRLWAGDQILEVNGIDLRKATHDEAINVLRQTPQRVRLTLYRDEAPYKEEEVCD

The next test concerns the target T2, SYNJ2BP, P57105.
T2 sequence (P57105 8-110, limits assumed, looked up): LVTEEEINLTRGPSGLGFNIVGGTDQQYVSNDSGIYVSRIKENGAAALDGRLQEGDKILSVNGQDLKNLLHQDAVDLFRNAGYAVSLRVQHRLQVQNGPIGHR

For the next test, the target named is T3, LIN7B, Q9HAP6.
T3 sequence (Q9HAP6 88-185, limits assumed, looked up): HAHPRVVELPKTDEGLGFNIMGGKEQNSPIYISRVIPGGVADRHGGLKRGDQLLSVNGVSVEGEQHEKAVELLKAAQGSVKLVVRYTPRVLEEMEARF

In another test the target is T4, APBA3_1, O96018.
T4 sequence (O96018 389-490, limits assumed, looked up): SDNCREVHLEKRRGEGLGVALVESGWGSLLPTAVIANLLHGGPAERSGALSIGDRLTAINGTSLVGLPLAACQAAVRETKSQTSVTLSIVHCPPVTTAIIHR

The target in the next test is T5, RADIL, Q96JH8.
T5 sequence (Q96JH8 971-1071, limits assumed, looked up): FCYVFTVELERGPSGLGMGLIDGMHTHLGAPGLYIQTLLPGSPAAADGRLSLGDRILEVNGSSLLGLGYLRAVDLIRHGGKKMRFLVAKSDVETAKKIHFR

Another test concerns the target T6, DLG3_3, Q92796.
T6 sequence (Q92796 374-475, limits assumed, looked up): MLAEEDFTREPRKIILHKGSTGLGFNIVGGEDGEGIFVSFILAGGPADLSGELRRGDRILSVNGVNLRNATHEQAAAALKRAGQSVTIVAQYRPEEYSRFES

In another test the target is T7, MPP6, Q9NZW5.
T7 sequence (Q9NZW5 125-219, limits assumed, looked up): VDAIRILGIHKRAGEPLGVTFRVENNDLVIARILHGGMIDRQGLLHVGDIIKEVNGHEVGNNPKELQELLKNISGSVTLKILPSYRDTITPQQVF

Another test concerns the target T8, LRRC7, Q96NW7.
T8 sequence (Q96NW7 1440-1537, limits assumed, looked up): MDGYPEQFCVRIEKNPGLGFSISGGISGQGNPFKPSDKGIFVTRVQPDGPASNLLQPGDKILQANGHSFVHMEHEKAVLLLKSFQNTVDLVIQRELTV

The target of another test is T9, SNTG2, Q9NY99.
T9 sequence (Q9NY99 68-166, limits assumed, looked up): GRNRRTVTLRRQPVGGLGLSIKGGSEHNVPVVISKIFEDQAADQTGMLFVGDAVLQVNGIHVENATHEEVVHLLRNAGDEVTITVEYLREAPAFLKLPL

For a further test, the target named is T10, PARD3B_1, Q8TEW8.
T10 sequence (Q8TEW8 196-299, limits assumed, looked up): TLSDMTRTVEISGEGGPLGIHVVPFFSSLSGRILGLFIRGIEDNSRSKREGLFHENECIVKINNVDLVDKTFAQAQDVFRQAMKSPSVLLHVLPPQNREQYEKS

AHNAK1, Q09666, sequence (Q09666 4-100): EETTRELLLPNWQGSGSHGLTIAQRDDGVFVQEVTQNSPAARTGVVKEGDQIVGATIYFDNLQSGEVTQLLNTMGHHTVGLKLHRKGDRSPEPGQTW
MAST1, Q9Y2H9, sequence (Q9Y2H9 962-1065): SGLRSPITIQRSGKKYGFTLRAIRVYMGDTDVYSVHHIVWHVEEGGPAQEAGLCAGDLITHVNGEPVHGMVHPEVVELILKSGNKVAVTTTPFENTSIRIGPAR
Inadl_9, Q8NI35, sequence (Q8NI35 1530-1615): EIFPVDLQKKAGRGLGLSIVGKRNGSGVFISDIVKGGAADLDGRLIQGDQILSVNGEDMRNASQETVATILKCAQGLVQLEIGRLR
NHERF4_1, Q86UT5-2, sequence (Q86UT5 other isoform, or with tags, fused parts or gaps): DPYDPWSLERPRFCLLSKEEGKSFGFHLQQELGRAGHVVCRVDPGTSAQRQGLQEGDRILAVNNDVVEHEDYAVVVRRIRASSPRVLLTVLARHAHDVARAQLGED
PARD3_3, Q8TEW0, sequence (Q8TEW0 582-685): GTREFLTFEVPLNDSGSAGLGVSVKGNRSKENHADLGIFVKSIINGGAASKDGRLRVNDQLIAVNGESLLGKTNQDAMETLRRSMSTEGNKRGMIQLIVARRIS
Inadl_6, Q8NI35, sequence (Q8NI35 1058-1167): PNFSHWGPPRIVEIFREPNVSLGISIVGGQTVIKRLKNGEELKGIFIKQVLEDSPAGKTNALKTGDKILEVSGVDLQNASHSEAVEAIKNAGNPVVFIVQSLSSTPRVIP
DLG5_1, Q8TDM6, sequence (Q8TDM6 617-713): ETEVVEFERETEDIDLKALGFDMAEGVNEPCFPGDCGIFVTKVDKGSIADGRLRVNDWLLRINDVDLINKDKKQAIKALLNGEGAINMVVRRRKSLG
DLG4_3, P78352, sequence (P78352 306-403): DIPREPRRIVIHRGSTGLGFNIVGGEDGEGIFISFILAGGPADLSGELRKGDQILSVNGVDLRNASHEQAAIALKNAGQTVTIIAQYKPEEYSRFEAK
DLG1_3, Q12959, sequence (Q12959 457-571): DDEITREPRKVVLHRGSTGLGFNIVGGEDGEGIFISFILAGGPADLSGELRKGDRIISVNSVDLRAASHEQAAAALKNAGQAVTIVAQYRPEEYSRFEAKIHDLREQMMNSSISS
FRMPD3, Q5JV73, sequence (Q5JV73 12-100): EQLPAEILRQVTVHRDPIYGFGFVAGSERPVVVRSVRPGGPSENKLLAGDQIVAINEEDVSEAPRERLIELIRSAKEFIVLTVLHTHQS
TJP2_1, Q9UDY2, sequence (Q9UDY2 24-128): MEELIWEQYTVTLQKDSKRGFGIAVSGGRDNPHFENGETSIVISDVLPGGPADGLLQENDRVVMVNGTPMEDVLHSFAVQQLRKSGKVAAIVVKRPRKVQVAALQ
GRASP, Q7Z6J2, sequence (Q7Z6J2 96-193): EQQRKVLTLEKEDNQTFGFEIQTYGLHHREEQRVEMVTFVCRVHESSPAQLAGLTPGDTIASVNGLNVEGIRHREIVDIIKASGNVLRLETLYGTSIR
Inadl_2, Q8NI35, sequence (Q8NI35 238-335): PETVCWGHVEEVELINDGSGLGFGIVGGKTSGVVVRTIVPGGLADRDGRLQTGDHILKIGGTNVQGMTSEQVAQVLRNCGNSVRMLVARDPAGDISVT
IL16_4, Q14005, sequence (Q14005 1229-1329): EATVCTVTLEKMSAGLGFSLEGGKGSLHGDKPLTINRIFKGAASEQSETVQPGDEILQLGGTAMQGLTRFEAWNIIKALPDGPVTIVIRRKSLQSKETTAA
NHERF2_2, Q15599, sequence (Q15599 142-238): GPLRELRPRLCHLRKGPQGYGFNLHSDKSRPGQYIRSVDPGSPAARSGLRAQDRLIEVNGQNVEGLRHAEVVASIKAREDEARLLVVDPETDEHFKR
NOS1, P29475, sequence (P29475 9-101): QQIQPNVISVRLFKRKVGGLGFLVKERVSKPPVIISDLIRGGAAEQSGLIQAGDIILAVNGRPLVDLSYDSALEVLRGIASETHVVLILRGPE
MAGI1_2, Q96QZ7, sequence (Q96QZ7 456-580): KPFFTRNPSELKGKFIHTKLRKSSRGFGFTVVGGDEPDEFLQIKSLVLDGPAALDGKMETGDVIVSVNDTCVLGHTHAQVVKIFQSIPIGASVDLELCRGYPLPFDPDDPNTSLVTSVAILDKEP

For the molecule KSRVAFFEEL [NF2, P35240;P35240-1], the negative logarithm of the Kd (pKd) in the test with GRASP, Q7Z6J2 is 4.08; with MPDZ_10, O75970 it was “below the threshold”; with DLG5_1, Q8TDM6, “below the threshold”; with Inadl_9, Q8NI35, “below the threshold”; with NHERF4_1, Q86UT5-2, 4.31; with Inadl_2, Q8NI35, “below the threshold”. The negative-log Kd (pKd) entry in the test with SYNJ2BP, P57105 was “below the threshold”; with LIN7B, Q9HAP6 it was “below the threshold”; with APBA3_1, O96018, “below the threshold”; with RADIL, Q96JH8 it was 4.44; in the test with MAST1, Q9Y2H9, 4.37; with DLG3_3, Q92796, “below the threshold”. Also, the pKd result is on record as “below the threshold” in the test with MPP6, Q9NZW5 and “below the threshold” with AHNAK1, Q09666.

As for SRSVVESDEL [MYPN, Q86TC9], the negative logarithm of the Kd (pKd) entry with Inadl_6, Q8NI35 is “below the threshold”; in the test with SNX27, Q96L92 it was 4.17; in the test with GRASP, Q7Z6J2, 4.14; in the test with MPDZ_10, O75970 it was “below the threshold”; in the test with PARD3_3, Q8TEW0 it was “below the threshold”; with DLG5_1, Q8TDM6, “below the threshold”. In addition, the pKd entry in the test with Inadl_9, Q8NI35 was “below the threshold”; with NHERF4_1, Q86UT5-2 it was 4.29; in the test with Inadl_2, Q8NI35 it was “below the threshold”; with NHERF2_2, Q15599, 3.86; with SYNJ2BP, P57105, “below the threshold”; with LRRC7, Q96NW7, “below the threshold”. For the same molecule, the pKd entry with LIN7B, Q9HAP6 is on record as “below the threshold”; with TJP2_1, Q9UDY2, “below the threshold”; with IL16_4, Q14005 it was “below the threshold”; in the test with SNTG2, Q9NY99, “below the threshold”; with DLG1_3, Q12959 it was “below the threshold”; in the test with APBA3_1, O96018, “below the threshold”. For the same molecule, the negative logarithm of the Kd (pKd) entry is recorded as “below the threshold” with RADIL, Q96JH8; “below the threshold” with NOS1, P29475; “below the threshold” with MAST1, Q9Y2H9; “below the threshold” with FRMPD3, Q5JV73; “below the threshold” with DLG3_3, Q92796; “below the threshold” in the test with MPP6, Q9NZW5. For the same molecule, the pKd result is “below the threshold” with DLG4_3, P78352; “below the threshold” with MAGI1_2, Q96QZ7; “below the threshold” in the test with AHNAK1, Q09666; “below the threshold” with PARD3B_1, Q8TEW8.

On to KRPEMTSSSV [MUC3A, MUC3B, Q02505;Q9H195], for which the negative logarithm of the Kd (pKd) result with Inadl_6, Q8NI35 is “below the threshold”; with MPDZ_10, O75970, 3.73; with PARD3_3, Q8TEW0 it was “below the threshold”; in the test with Inadl_9, Q8NI35 it was 3.6; in the test with NHERF4_1, Q86UT5-2, 3.58; with Inadl_2, Q8NI35, “below the threshold”. The negative logarithm of the Kd (pKd) entry in the test with NHERF2_2, Q15599 is “below the threshold”; with SYNJ2BP, P57105, 5.02; with LRRC7, Q96NW7, “below the threshold”; with LIN7B, Q9HAP6, 3.68; with TJP2_1, Q9UDY2 it was “below the threshold”; in the test with IL16_4, Q14005 it was 1.87. The pKd entry was “below the threshold” with DLG1_3, Q12959; “below the threshold” with APBA3_1, O96018; “below the threshold” with RADIL, Q96JH8; 4.17 with MAST1, Q9Y2H9; “below the threshold” with FRMPD3, Q5JV73; 1.84 with DLG3_3, Q92796. Besides, the pKd result is “below the threshold” with MPP6, Q9NZW5; 1.91 with DLG4_3, P78352; “below the threshold” in the test with AHNAK1, Q09666; “below the threshold” in the test with PARD3B_1, Q8TEW8.

Consider IDESKKEWLI [CNTNAP2, Q9UHC6], for which the pKd entry is “below the threshold” in the test with Inadl_6, Q8NI35; “below the threshold” with SNX27, Q96L92; “below the threshold” with GRASP, Q7Z6J2; “below the threshold” with MPDZ_10, O75970; 5.28 in the test with PARD3_3, Q8TEW0; “below the threshold” with DLG5_1, Q8TDM6. Further, the pKd result with Inadl_9, Q8NI35 is “below the threshold”; in the test with NHERF4_1, Q86UT5-2 it was “below the threshold”; with Inadl_2, Q8NI35 it was 4.67; with NHERF2_2, Q15599 it was “below the threshold”; in the test with SYNJ2BP, P57105 it was “below the threshold”; in the test with LRRC7, Q96NW7, “below the threshold”. Further, the negative-log Kd (pKd) with LIN7B, Q9HAP6 is 3.75; with TJP2_1, Q9UDY2, “below the threshold”; with IL16_4, Q14005, 3.79; with SNTG2, Q9NY99 it was “below the threshold”; with DLG1_3, Q12959, “below the threshold”; in the test with APBA3_1, O96018, “below the threshold”. The negative-log Kd (pKd) in the test with RADIL, Q96JH8 is 3.76; in the test with NOS1, P29475, 4.21; in the test with MAST1, Q9Y2H9, “below the threshold”; with FRMPD3, Q5JV73 it was “below the threshold”; in the test with DLG3_3, Q92796, “below the threshold”; with MPP6, Q9NZW5, 4.54. Further, the pKd entry with DLG4_3, P78352 is “below the threshold”; in the test with MAGI1_2, Q96QZ7, “below the threshold”; with AHNAK1, Q09666 it was “below the threshold”; in the test with PARD3B_1, Q8TEW8, 4.63.
